The source of these data is the supplement of paper PMC7877785.

± gives the uncertainty stated by the source.

A short description of the data set: self-splicing fitness, log relative to wild type (ln ratio); higher = more splicing; Tetrahymena group I intron in knt gene, E. coli kanamycin selection, DiMSum; sequences stand for … in CUCUCU…GGAGGGAAAAGUUAUCAGGCAUGCACCUGGUAGCUAGUCUUUAAACCAAUAGAUUGCAUCGGUUUAAAAGGCAAGACCGUCAAAUUGCGGGAAAGGGGUCAACAGCCGUUCAGUACCAAGUCUCAGGGGAAACUUUGAGAUGGCCUUGCAAAGGGUAUGGUAAUAAGCUGACGGACAUGGUCCUAACCACGCAGCCAAGUCCUAAGUCAACAGAUCUUCUGUUGAUAUGGAUGCAGUUCACAGACUAAAUGUCGGUCGGGGAAGAUGUAUUCUUCUCAUAAGAUAUAGUCGGACCUCUCCUUAAUGGGAGCUAGCGGAUGAAGUGAUGCAACACUGGAGCCGCUGGGAACUAAUUUGUAUGCGAAAGUAUAUUGAUUAGUUUUGGAGUACUCGUGGUCG
The method, boiled down:
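Colonies from six replicate transformations of E. coli BL21(DE3) were pooled and amplicon-sequenced on an Illumina HiSeq 2500. The library placed an intron with all eight P1ex-region nucleotides randomised inside the knt kanamycin-resistance gene on pET-22b(+), and cells grew overnight at 37°C or 30°C on LB agar with or without 25 μg/mL kanamycin (plus 100 μg/mL carbenicillin, 50 μM IPTG, 0.2% rhamnose). Fitness is the DiMSum error-weighted combination of wild-type-normalised replicate fold changes, kanamycin versus none.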

UCACAGCAAUAUUACGGAGA: the “self-splicing fitness (ln)” value reads like this: (30 °C) -1.48 ± 0.1; (37 °C) -0.898 ± 0.11.
Turning to UCACAGCAAUAUUACGGCUC, the “self-splicing fitness (ln)” value (30 °C) is -2.9 ± 0.22 and the “self-splicing fitness (ln)” value (37 °C) is -1.87 ± 0.21.
Turning to UCACAGCAAUAUUACGGGAA, the “self-splicing fitness (ln)” value by setting is: (30 °C) -1.98 ± 0.1; (37 °C) -0.945 ± 0.089.
The like results for UCACAGCAAUAUUACGGGGU were, in that order, -3.58 ± 0.14 and -2.67 ± 0.18.
As to UCACAGCAAUAUUACGGUCG, the “self-splicing fitness (ln)” value runs as follows: (30 °C) -0.0254 ± 0.054; (37 °C) 0.119 ± 0.061.
For UCACAGCAAUAUUACGUACG, in that order: -0.786 ± 0.093 and -0.747 ± 0.1.
Take UCACAGCAAUAUUACGUCCA: the “self-splicing fitness (ln)” value is -0.951 ± 0.14 (30 °C) and -0.533 ± 0.14 (37 °C).
As to UCACAGCAAUAUUACGUCGG, the “self-splicing fitness (ln)” value reads like this: (30 °C) -1.43 ± 0.077; (37 °C) -0.796 ± 0.083.
Turning to UCACAGCAAUAUUACGUCUC, the “self-splicing fitness (ln)” value by setting is: (30 °C) -3.42 ± 0.25; (37 °C) -1.77 ± 0.2.
The like results for UCACAGCAAUAUUACGUGAC were, in that order, -3.26 ± 0.12 and -2.5 ± 0.22.
UCACAGCAAUAUUACGUUGA: the “self-splicing fitness (ln)” value (30 °C) was -2.56 ± 0.11 and the “self-splicing fitness (ln)” value (37 °C) is -2.1 ± 0.11.
The like results for UCAGAGCAAUAUUACGAAGG were, in that order, -2.15 ± 0.085 and -1.84 ± 0.12.
For UCAGAGCAAUAUUACGAAUU, the “self-splicing fitness (ln)” value (37 °C) is -2.24 ± 0.37.
For UCAGAGCAAUAUUACGACCA, the “self-splicing fitness (ln)” value runs as follows: (30 °C) -2.73 ± 0.38; (37 °C) -2.63 ± 0.47.
For UCAGAGCAAUAUUACGACGA, the “self-splicing fitness (ln)” value was -0.0796 ± 0.1 (30 °C) and -0.26 ± 0.11 (37 °C).
On to UCAGAGCAAUAUUACGACGC, for which the “self-splicing fitness (ln)” value (37 °C) was -1.69 ± 0.4.
For UCAGAGCAAUAUUACGACGU, the “self-splicing fitness (ln)” value is -1.87 ± 0.2 (30 °C) and 0.0812 ± 0.17 (37 °C).
Consider UCAGAGCAAUAUUACGAUUA, for which the “self-splicing fitness (ln)” value (30 °C) is -1.18 ± 0.28.
As for UCAGAGCAAUAUUACGAUUU, the “self-splicing fitness (ln)” value by setting is: (30 °C) -3.82 ± 0.3; (37 °C) -1.67 ± 0.22.
Take UCAGAGCAAUAUUACGCCGG: the “self-splicing fitness (ln)” value (30 °C) is -2.92 ± 0.24.
Take UCAGAGCAAUAUUACGCGUU: the “self-splicing fitness (ln)” value runs as follows: (30 °C) -4.72 ± 0.29; (37 °C) -2.78 ± 0.21.
As for UCAGAGCAAUAUUACGGAGA, the “self-splicing fitness (ln)” value by setting is: (30 °C) -2.08 ± 0.15; (37 °C) -1.93 ± 0.17.
For UCAGAGCAAUAUUACGGCAA, where the note is “30 °C”, the “self-splicing fitness (ln)” value was -2.43 ± 0.33.
As to UCAGAGCAAUAUUACGGGAC, the “self-splicing fitness (ln)” value (30 °C) is -3.74 ± 0.29 and the “self-splicing fitness (ln)” value (37 °C) is -1.6 ± 0.33.
For UCAGAGCAAUAUUACGGUAU, in that order: -2.79 ± 0.2 and -3.2 ± 0.44.
For UCAGAGCAAUAUUACGGUGG, in that order: -3.06 ± 0.089 and -1.32 ± 0.084.
The like results for UCAGAGCAAUAUUACGUAAU were, in that order, -2.52 ± 0.25 and -1.66 ± 0.3.
For UCAGAGCAAUAUUACGUAUU, the “self-splicing fitness (ln)” value is, setting by setting: (30 °C) -3.31 ± 0.2; (37 °C) -3.08 ± 0.29.
The like results for UCAGAGCAAUAUUACGUCGU were, in that order, -2.89 ± 0.24 and -0.54 ± 0.24.
Turning to UCAGAGCAAUAUUACGUGGA, the “self-splicing fitness (ln)” value was -2.49 ± 0.17 (30 °C) and -0.107 ± 0.12 (37 °C).
For UCAGAGCAAUAUUACGUUCC, the “self-splicing fitness (ln)” value was -3.84 ± 0.47 (30 °C) and -2.57 ± 0.49 (37 °C).
The like results for UCAUAGCAAUAUUACGAAGG were, in that order, -2.69 ± 0.14 and -1.31 ± 0.11.
On to UCAUAGCAAUAUUACGAAUA, for which the “self-splicing fitness (ln)” value reads like this: (30 °C) -2.82 ± 0.28; (37 °C) -1.04 ± 0.28.
For UCAUAGCAAUAUUACGAAUG, the “self-splicing fitness (ln)” value reads like this: (30 °C) -2.7 ± 0.16; (37 °C) -1.83 ± 0.16.
UCAUAGCAAUAUUACGAAUU: the “self-splicing fitness (ln)” value reads like this: (30 °C) -3.73 ± 0.32; (37 °C) -2.48 ± 0.24.
Consider UCAUAGCAAUAUUACGACAA, for which the “self-splicing fitness (ln)” value runs as follows: (30 °C) -2.43 ± 0.26; (37 °C) -1.06 ± 0.15.
For UCAUAGCAAUAUUACGACAC, the “self-splicing fitness (ln)” value (37 °C) was -2.64 ± 0.29.
For UCAUAGCAAUAUUACGAGCC, the “self-splicing fitness (ln)” value (37 °C) is -1.76 ± 0.49.
On to UCAUAGCAAUAUUACGAUGG, for which the “self-splicing fitness (ln)” value is, setting by setting: (30 °C) -3.32 ± 0.19; (37 °C) -1.3 ± 0.17.
On to UCAUAGCAAUAUUACGAUUC, for which the “self-splicing fitness (ln)” value is, setting by setting: (30 °C) -2.39 ± 0.18; (37 °C) -2.6 ± 0.33.
